According to article PMC13200811 (Cell, 2025):
Like-named read-outs stand apart in the source and are kept apart here.

Tests used:
[1] = target: BCL-wΔN (aa 40-193; α2-α9) (human) (UniProt Q92843); experiment: SEC
[2] = target: BCL-wΔNΔC (aa 40-156; α2-α8) (human) (UniProt Q92843); experiment: SEC
[3] = target: T1, full-length monomeric BCL-w (aa 1-193) (human), Q92843; experiment: SEC-MALS; conditions: remark: other sources report otherwise
T1 chain: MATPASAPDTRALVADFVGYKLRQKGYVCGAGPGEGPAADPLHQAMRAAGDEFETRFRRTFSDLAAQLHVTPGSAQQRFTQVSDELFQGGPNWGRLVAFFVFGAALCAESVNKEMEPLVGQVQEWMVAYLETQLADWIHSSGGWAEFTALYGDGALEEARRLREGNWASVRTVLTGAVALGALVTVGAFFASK

[4] = target: T1, full-length monomeric BCL-w (aa 1-193) …; experiment: SEC-SAXS; conditions: remark: other sources report otherwise
SEC [5] = target: the molecule itself; experiment: SEC
SEC [6] = target: the molecule itself; experiment: SEC; remark: listed apart in the source

BCL-wΔN (aa 40-193; α2-α9) (from UniProt Q92843 40-193) (domain or fragment)
stoichiometry N [1]: 2

BCL-wΔNΔC (aa 40-156; α2-α8) (from UniProt Q92843 40-156) (domain or fragment)
stoichiometry N [2]: 2

B1: full-length monomeric BCL-w (aa 1-193), Q92843 1-193 (natural protein)
chain: MATPASAPDTRALVADFVGYKLRQKGYVCGAGPGEGPAADPLHQAMRAAGDEFETRFRRTFSDLAAQLHVTPGSAQQRFTQVSDELFQGGPNWGRLVAFFVFGAALCAESVNKEMEPLVGQVQEWMVAYLETQLADWIHSSGGWAEFTALYGDGALEEARRLREGNWASVRTVLTGAVALGALVTVGAFFASK
stoichiometry N [3]: 2 | stoichiometry N [4]: 2

B2: BCL-w G94E (full length) (natural protein, human, UniProt Q92843 1-193, looked up)
chain: MATPASAPDTRALVADFVGYKLRQKGYVCGAGPGEGPAADPLHQAMRAAGDEFETRFRRTFSDLAAQLHVTPGSAQQRFTQVSDELFQGGPNWERLVAFFVFGAALCAESVNKEMEPLVGQVQEWMVAYLETQLADWIHSSGGWAEFTALYGDGALEEARRLREGNWASVRTVLTGAVALGALVTVGAFFASK
stoichiometry N (SEC [5]): 2

B3: GFP-BCL-w α1-α8 (aa 1-156) (domain or fragment, human, UniProt Q92843 1-156, looked up)
chain: MATPASAPDTRALVADFVGYKLRQKGYVCGAGPGEGPAADPLHQAMRAAGDEFETRFRRTFSDLAAQLHVTPGSAQQRFTQVSDELFQGGPNWGRLVAFFVFGAALCAESVNKEMEPLVGQVQEWMVAYLETQLADWIHSSGGWAEFTALYGDGAL
stoichiometry N (SEC [6]): 2

B4: BCL-wΔC (aa 1-156; α1-α8) (domain or fragment, human, UniProt Q92843 1-156, looked up)
chain: MATPASAPDTRALVADFVGYKLRQKGYVCGAGPGEGPAADPLHQAMRAAGDEFETRFRRTFSDLAAQLHVTPGSAQQRFTQVSDELFQGGPNWGRLVAFFVFGAALCAESVNKEMEPLVGQVQEWMVAYLETQLADWIHSSGGWAEFTALYGDGAL
stoichiometry N (SEC [5]): 2
